± gives the standard error.
Assay: background-corrected fluorescence of 3'-dye-labeled ssDNA relative to brightest sequence (3'-GCGCG) (fraction); higher = brighter dye fluorescence (less quenching)
In short: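 Light-directed phosphoramidite synthesis on glass slides produced single-stranded DNA carrying a 3' Cy3 or Cy5 dye next to each of 1024 permuted pentamers. After a 2 h acetonitrile wash at r.t., arrays were scanned at 532 or 635 nm both before and after overnight deprotection in ethylenediamine/ethanol. Every value is the mean of 10 features per array over at least 3 syntheses. Fluorescence had unlabeled-oligo background subtracted and was scaled to the brightest sequence.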

| Sequence | background-corrected fluorescence (dye: Cy3 (3' terminal)) | background-corrected fluorescence (dye: Cy5 (3' terminal)) |
| --- | --- | --- |
| TTTTTTCATCATGCTGCTGCTTTTTTTTTTTTTTTGGAAA [AAAGG] | 0.642 ± 0.038 | 0.534 ± 0.035 |
| TTTTTTCATGAGCAGCAGCATTTTTTTTTTTTTTTGCTTT [TTTCG] | 0.5304 ± 0.0051 | 0.384 ± 0.038 |
| TTTTTTCATGAGCAGCATCATTTTTTTTTTTTTTTGCTTG [GTTCG] | 0.465 ± 0.023 | 0.343 ± 0.021 |
| TTTTTTCATGAGCAGCATGATTTTTTTTTTTTTTTGCTTC [CTTCG] | 0.388 ± 0.041 | 0.285 ± 0.024 |
| TTTTTTCATGAGCAGCATGCTTTTTTTTTTTTTTTGCTTA [ATTCG] | 0.534 ± 0.026 | 0.408 ± 0.03 |
| TTTTTTCATGAGCATCAGCATTTTTTTTTTTTTTTGCTGT [TGTCG] | 0.594 ± 0.011 | 0.458 ± 0.038 |
| TTTTTTCATGAGCATCATCATTTTTTTTTTTTTTTGCTGG [GGTCG] | 0.557 ± 0.039 | 0.47 ± 0.032 |
| TTTTTTCATGAGCATCATGATTTTTTTTTTTTTTTGCTGC [CGTCG] | 0.509 ± 0.031 | 0.403 ± 0.029 |
| TTTTTTCATGAGCATCATGCTTTTTTTTTTTTTTTGCTGA [AGTCG] | 0.5917 ± 0.0054 | 0.525 ± 0.036 |
| TTTTTTCATGAGCATGAGCATTTTTTTTTTTTTTTGCTCT [TCTCG] | 0.497 ± 0.015 | 0.337 ± 0.023 |
| TTTTTTCATGAGCATGATCATTTTTTTTTTTTTTTGCTCG | 0.517 ± 0.015 | 0.375 ± 0.033 |
| TTTTTTCATGAGCATGATGATTTTTTTTTTTTTTTGCTCC [CCTCG] | 0.396 ± 0.022 | 0.286 ± 0.021 |
| TTTTTTCATGAGCATGATGCTTTTTTTTTTTTTTTGCTCA [ACTCG] | 0.485 ± 0.016 | 0.386 ± 0.032 |
| TTTTTTCATGAGCATGCGCATTTTTTTTTTTTTTTGCTAT [TATCG] | 0.52 ± 0.019 | 0.376 ± 0.035 |
| TTTTTTCATGAGCATGCTCATTTTTTTTTTTTTTTGCTAG [GATCG] | 0.57 ± 0.036 | 0.422 ± 0.053 |
| TTTTTTCATGAGCATGCTGATTTTTTTTTTTTTTTGCTAC [CATCG] | 0.424 ± 0.02 | 0.338 ± 0.031 |
| TTTTTTCATGAGCATGCTGCTTTTTTTTTTTTTTTGCTAA [AATCG] | 0.534 ± 0.014 | 0.463 ± 0.032 |

| Sequence | background-corrected fluorescence (dye: Cy3 (3' terminal)) | background-corrected fluorescence (dye: Cy5 (3' terminal)) |
| --- | --- | --- |
| TTTTTTCATGATCAGCAGCATTTTTTTTTTTTTTTGCGTT | 0.571 ± 0.032 | 0.422 ± 0.024 |
| TTTTTTCATGATCAGCATCATTTTTTTTTTTTTTTGCGTG [GTGCG] | 0.577 ± 0.012 | 0.439 ± 0.023 |
| TTTTTTCATGATCAGCATGATTTTTTTTTTTTTTTGCGTC [CTGCG] | 0.481 ± 0.033 | 0.366 ± 0.028 |
| TTTTTTCATGATCAGCATGCTTTTTTTTTTTTTTTGCGTA [ATGCG] | 0.604 ± 0.026 | 0.466 ± 0.026 |
| TTTTTTCATGATCATCAGCATTTTTTTTTTTTTTTGCGGT [TGGCG] | 0.743 ± 0.026 | 0.566 ± 0.036 |
| TTTTTTCATGATCATCATCATTTTTTTTTTTTTTTGCGGG [GGGCG] | 0.701 ± 0.013 | 0.563 ± 0.045 |
| TTTTTTCATGATCATCATGATTTTTTTTTTTTTTTGCGGC [CGGCG] | 0.658 ± 0.028 | 0.506 ± 0.029 |
| TTTTTTCATGATCATCATGCTTTTTTTTTTTTTTTGCGGA [AGGCG] | 0.786 ± 0.033 | 0.689 ± 0.033 |
| TTTTTTCATGATCATGAGCATTTTTTTTTTTTTTTGCGCT [TCGCG] | 0.623 ± 0.022 | 0.485 ± 0.025 |
| TTTTTTCATGATCATGATCATTTTTTTTTTTTTTTGCGCG | 1 ± 0.024 | 1 ± 0.035 |
| TTTTTTCATGATCATGATGATTTTTTTTTTTTTTTGCGCC [CCGCG] | 0.505 ± 0.024 | 0.4 ± 0.041 |
| TTTTTTCATGATCATGATGCTTTTTTTTTTTTTTTGCGCA [ACGCG] | 0.714 ± 0.027 | 0.657 ± 0.043 |
| TTTTTTCATGATCATGCGCATTTTTTTTTTTTTTTGCGAT [TAGCG] | 0.5348 ± 0.0049 | 0.474 ± 0.037 |
| TTTTTTCATGATCATGCTCATTTTTTTTTTTTTTTGCGAG [GAGCG] | 0.608 ± 0.03 | 0.51 ± 0.085 |
| TTTTTTCATGATCATGCTGATTTTTTTTTTTTTTTGCGAC [CAGCG] | 0.518 ± 0.026 | 0.394 ± 0.023 |
| TTTTTTCATGATCATGCTGCTTTTTTTTTTTTTTTGCGAA [AAGCG] | 0.666 ± 0.028 | 0.525 ± 0.028 |
| TTTTTTCATGATGAGCAGCATTTTTTTTTTTTTTTGCCTT [TTCCG] | 0.489 ± 0.031 | 0.367 ± 0.035 |

— the supplement of paper PMC9428881
